Results from paper PMC3694778.
pKd: −log10 of the molar value.

How the values were obtained:
[1] = test system: CLOCK bHLH-PAS-AB;BMAL1 bHLH-PAS-AB (mouse;mouse); assay: fluorescence anisotropy competition; conditions: not given in the material (Supplementary Methods not held)
[2] = test system: CLOCK bHLH-PAS-AB;BMAL1 bHLH-PAS-AB (mouse;mouse); assay: fluorescence anisotropy; conditions: not given in the material (Supplementary Methods not held)

Substance | pKd [1] | pKd [2]
mPer1 E1-box DNA 18-mer, unlabeled | 8.05 | –
mPer2 E2-box DNA 18-mer, unlabeled | 7.89 | –
mPer2 E2-box DNA, fluorescein labeled | – | 7.23
